Measurements taken from article PMC8254080 (Biochemistry and Biophysics Reports, 2021).
Where two headings read alike, the source gives them in different places.

B1: Salmonella PrgI (type 3 needle filament protomer, SPI-1) (natural protein, Salmonella (strain SB905))
chain: MATPWSGYLDDVSAKFDTGVDNLQTQVTEALDKLAAKPSDPALLAAYQSKLSEYNLYRNAQSNTVKVFKDIDAAIIQNFR
B2: Shigella MxiH (type 3 needle filament protomer) with N-terminal Strep-tag II and factor Xa cleavage site (natural protein, UniProt P0A223 1-83, looked up)
chain: MSVTVPNDDWTLSSLSETFDDGTQTLQGELTLALDKLAKNPSNPQLLAEYQSKLSEYTLYRNAQSNTVKVIKDVDAAIIQNFR

Columns and labels:
cryo-EM structure [1] = biological target: the molecule itself; test: cryo-EM structure
cryo-EM structure [2] = biological target: the molecule itself; test: cryo-EM structure; remark: listed apart in the source

| Protein | binding result (cryo-EM structure [1]) | binding result (cryo-EM structure [2]) |
| --- | --- | --- |
| B1 | binds | – |
| B2 | – | binds |
